Molecular target: GST-NRX (cytoplasmic domain of Neurexin) (Drosophila) (UniProt Q94887)
Assay: pull-down

UniProt Q94887, sequence (Q94887 1239-1284): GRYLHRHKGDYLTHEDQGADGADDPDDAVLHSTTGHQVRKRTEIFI

| % relative binding of 32P-COR to NRX with the competitor | % relative binding | Substance |
| --- | --- | --- |
| 36.6% |  | unlabeled Coracle (cDNA3 isoform, recombinant) (natural protein) |
|  | 100% | 32P-labeled Coracle (cDNA3 isoform, recombinant) (natural protein) |

Reference: paper PMC2132682
